The values below are quoted from earlier work in publication PMC9445421.

Series [1] deals with TrkB (Homo sapiens) (UniProt Q16620).
Series [2] shares this target. The source holds these as a separate data set.

Read-outs that look alike come from different tables or passages of the source.

Sequence of UniProt Q16620 (Q16620 32-430): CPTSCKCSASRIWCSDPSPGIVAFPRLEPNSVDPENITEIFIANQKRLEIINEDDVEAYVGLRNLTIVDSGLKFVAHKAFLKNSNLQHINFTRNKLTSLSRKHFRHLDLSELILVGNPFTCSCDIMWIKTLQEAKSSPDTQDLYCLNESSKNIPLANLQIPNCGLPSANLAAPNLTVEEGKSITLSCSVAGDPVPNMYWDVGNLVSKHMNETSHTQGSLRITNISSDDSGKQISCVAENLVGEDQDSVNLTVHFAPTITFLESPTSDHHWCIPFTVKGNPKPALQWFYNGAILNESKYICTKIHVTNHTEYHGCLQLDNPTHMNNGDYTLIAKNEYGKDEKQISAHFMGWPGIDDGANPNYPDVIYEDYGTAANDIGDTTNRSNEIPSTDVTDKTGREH

Broadly, the Kd is the free concentration of one partner at which half of the binding sites on the other are occupied at equilibrium, for simple one-to-one binding. As to BDNF (from UniProt P23560), in the series with TrkB (Homo sapiens) [1], the Kd was 0.79 nM.

On to NT4 (from UniProt P34130), for which, in the series with TrkB (Homo sapiens) [2], the Kd was 0.26 nM.
